Test results as given in the supplement of paper PMC7877785.
± gives the uncertainty stated by the source.

Test: self-splicing fitness, log relative to wild type (ln ratio); higher = more splicing; Tetrahymena group I intron in knt gene, E. coli kanamycin selection, DiMSum; sequences stand for … in CUCUCU…GGAGGGAAAAGUUAUCAGGCAUGCACCUGGUAGCUAGUCUUUAAACCAAUAGAUUGCAUCGGUUUAAAAGGCAAGACCGUCAAAUUGCGGGAAAGGGGUCAACAGCCGUUCAGUACCAAGUCUCAGGGGAAACUUUGAGAUGGCCUUGCAAAGGGUAUGGUAAUAAGCUGACGGACAUGGUCCUAACCACGCAGCCAAGUCCUAAGUCAACAGAUCUUCUGUUGAUAUGGAUGCAGUUCACAGACUAAAUGUCGGUCGGGGAAGAUGUAUUCUUCUCAUAAGAUAUAGUCGGACCUCUCCUUAAUGGGAGCUAGCGGAUGAAGUGAUGCAACACUGGAGCCGCUGGGAACUAAUUUGUAUGCGAAAGUAUAUUGAUUAGUUUUGGAGUACUCGUGGUCG
Procedure, shortened: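 A randomised library covering all eight P1ex-region intron nucleotides was built with the intron in the knt kanamycin-resistance gene on pET-22b(+) and held in E. coli BL21(DE3). Cells were grown overnight at 37°C or 30°C on LB agar, with or without 25 μg/mL kanamycin, plus 100 μg/mL carbenicillin, 50 μM IPTG and 0.2% rhamnose, and pooled colonies were amplicon-sequenced on an Illumina HiSeq 2500. DiMSum fitness is the error-weighted combination of wild-type-normalised replicate fold changes, kanamycin versus none.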

Row | Sequence | self-splicing fitness (ln) (30 °C) | self-splicing fitness (ln) (37 °C)
1 | CGGCAGCAAUAUUACGCUGG | -3.32 ± 0.16 | -2.23 ± 0.21
2 | GGACAGCAAUAUUACGGUAC | -0.625 ± 0.11 | -0.234 ± 0.13
3 | UCUCAGCAAUAUUACGCUUG | -3.17 ± 0.16 | -3.32 ± 0.33
4 | UUCAAGCAAUAUUACGCCUC | -1.59 ± 0.14 | -1.34 ± 0.16
5 | UUUCAGCAAUAUUACGGUGG | -1.94 ± 0.067 | -0.673 ± 0.075
6 | GGCAAGCAAUAUUACGGAAG | -2.84 ± 0.1 | -1.37 ± 0.1
7 | CAAGAGCAAUAUUACGAGCG | -0.536 ± 0.07 | -0.728 ± 0.073
8 | UCGAAGCAAUAUUACGCUUA | -2.28 ± 0.28 | -3.61 ± 0.37
9 | CAACAGCAAUAUUACGCCCC | – | -0.283 ± 0.4
10 | UAACAGCAAUAUUACGCUCG | -0.803 ± 0.096 | -0.212 ± 0.098
11 | CAUAAGCAAUAUUACGAAUC | -3.25 ± 0.25 | -3.34 ± 0.37
12 | CGAUAGCAAUAUUACGCAGA | -3.24 ± 0.21 | -1.75 ± 0.13
13 | GGCGAGCAAUAUUACGCGAG | -2.7 ± 0.24 | -2.24 ± 0.32
14 | UAGCAGCAAUAUUACGGAGU | -3.64 ± 0.18 | -2.78 ± 0.15
15 | AUCCAGCAAUAUUACGCUAG | -2.76 ± 0.11 | -1.11 ± 0.12
16 | CACUAGCAAUAUUACGAAUC | -3.91 ± 0.19 | -2.58 ± 0.22
17 | CGAUAGCAAUAUUACGCUGU | -3.12 ± 0.4 | -2.15 ± 0.31
18 | AGAUAGCAAUAUUACGGGUG | -2.83 ± 0.2 | -1.88 ± 0.21
19 | UUCCAGCAAUAUUACGGACU | -2.17 ± 0.14 | -0.74 ± 0.15
20 | CACAAGCAAUAUUACGUUAA | -4.3 ± 0.27 | -2.28 ± 0.13
21 | UUACAGCAAUAUUACGACAU | -1.971 ± 0.014 | -1.02 ± 0.033

Row | Sequence | self-splicing fitness (ln) (30 °C) | self-splicing fitness (ln) (37 °C)
22 | CCUCAGCAAUAUUACGGAAG | -1.05 ± 0.11 | -0.549 ± 0.14
23 | CGGCAGCAAUAUUACGUGCC | -2.66 ± 0.28 | –
24 | CUGUAGCAAUAUUACGAUUG | -1.2 ± 0.23 | 0.185 ± 0.22
25 | GCCUAGCAAUAUUACGAUGG | -3.13 ± 0.21 | -2.05 ± 0.21
26 | GGUGAGCAAUAUUACGUAUC | -1.77 ± 0.1 | -0.807 ± 0.12
27 | AGUCAGCAAUAUUACGCCAG | -3.55 ± 0.34 | -2.47 ± 0.31
28 | GUCGAGCAAUAUUACGGGCG | -2.88 ± 0.11 | -1.36 ± 0.12
29 | UAACAGCAAUAUUACGACCU | -0.404 ± 0.098 | 0.106 ± 0.11
30 | UAUGAGCAAUAUUACGCGUC | -2.05 ± 0.16 | -2.81 ± 0.37
31 | CAGUAGCAAUAUUACGCUUG | -0.882 ± 0.13 | -0.797 ± 0.22
32 | UUAGAGCAAUAUUACGCUAA | -1.93 ± 0.24 | -0.588 ± 0.36
33 | AAUCAGCAAUAUUACGCACG | -1.02 ± 0.17 | -1.1 ± 0.16
34 | UACGAGCAAUAUUACGGAAG | -3.5 ± 0.24 | -2.26 ± 0.37
35 | UAGCAGCAAUAUUACGUUGA | -2.46 ± 0.13 | -2.07 ± 0.12
36 | CACGAGCAAUAUUACGGCCU | -4.34 ± 0.36 | -3.06 ± 0.3
37 | UUAGAGCAAUAUUACGCAGU | -3.64 ± 0.32 | -3.17 ± 0.47
38 | GUCUAGCAAUAUUACGCCGG | -3.17 ± 0.33 | -2.31 ± 0.33
39 | AAUUAGCAAUAUUACGAAAU | -1.2 ± 0.16 | -1.09 ± 0.23
40 | GCAAAGCAAUAUUACGCAUU | -2.78 ± 0.12 | -1.7 ± 0.14
41 | AGACAGCAAUAUUACGCGCA | -0.449 ± 0.084 | 0.312 ± 0.13
42 | CCCCAGCAAUAUUACGAAGC | -4.34 ± 0.31 | -3.28 ± 0.3
